From publication PMC4517634

Legend:
[1] = biological target: human trypsin (human)
[2] = biological target: human cathepsin G (human) (UniProt P08311)
[3] = biological target: human thrombin (human)
[4] = biological target: human cathepsin L (human)

human cathepsin G (human), sequence (P08311 21-244): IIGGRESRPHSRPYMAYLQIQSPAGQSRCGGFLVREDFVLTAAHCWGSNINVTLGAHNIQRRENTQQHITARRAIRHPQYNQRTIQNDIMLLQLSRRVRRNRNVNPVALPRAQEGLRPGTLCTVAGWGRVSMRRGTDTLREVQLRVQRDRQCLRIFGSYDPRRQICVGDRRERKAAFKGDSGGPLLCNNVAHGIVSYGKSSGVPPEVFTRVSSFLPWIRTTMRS

**Q.** “recombinant His-tagged ANISERP protein (baculovirus system) (from UniProt F4MST7 1-397) (natural protein)” was tested. Which IC50 of inhibition of trypsin (54 nM) proteolytic activity on Boc-Gln-Ala-Arg-AMC [1] did it give?
**A.** Its IC50 of inhibition of trypsin (54 nM) proteolytic activity on Boc-Gln-Ala-Arg-AMC is 173 nM.

**Q.** And the IC50 of inhibition of cathepsin G (0.33 nM) proteolytic activity on N-succinyl-Ala-Ala-Phe-AMC [2]?
**A.** The IC50 of inhibition of cathepsin G (0.33 nM) proteolytic activity on N-succinyl-Ala-Ala-Phe-AMC was 542 nM.

**Q.** What about the IC50 of inhibition of thrombin (74 nM) proteolytic activity on Boc-Val-Arg-AMC after 10 min at 37 °C with ANISERP [3] of the same substance?
**A.** The IC50 of inhibition of thrombin (74 nM) proteolytic activity on Boc-Val-Arg-AMC after 10 min at 37 °C with ANISERP was 152 nM.

**Q.** And the IC50 of inhibition of cathepsin L (0.83 nM) proteolytic activity on Z-Phe-Arg-AMC [4]?
**A.** Its IC50 of inhibition of cathepsin L (0.83 nM) proteolytic activity on Z-Phe-Arg-AMC is 217 nM.
